Measurements as given in publication PMC10565809 (2022).

T1: GFRα1 (Homo sapiens, UniProt P56159)
T1 chain: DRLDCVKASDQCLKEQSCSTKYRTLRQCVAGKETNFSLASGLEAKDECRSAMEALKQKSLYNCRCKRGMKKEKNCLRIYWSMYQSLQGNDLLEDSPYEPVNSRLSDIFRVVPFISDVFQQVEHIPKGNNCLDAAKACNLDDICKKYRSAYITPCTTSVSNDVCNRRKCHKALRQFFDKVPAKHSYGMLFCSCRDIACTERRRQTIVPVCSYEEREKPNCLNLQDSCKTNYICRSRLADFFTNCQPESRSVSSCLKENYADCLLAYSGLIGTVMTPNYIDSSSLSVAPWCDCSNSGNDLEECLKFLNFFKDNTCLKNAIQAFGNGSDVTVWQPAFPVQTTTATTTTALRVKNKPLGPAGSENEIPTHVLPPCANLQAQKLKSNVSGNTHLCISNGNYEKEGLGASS

B1: GDNF (protein)
chain: KRSPDKQMAVLPRRERNRQAAAANPENSRGKGRRGQRGKNRGCVLTAIHLNVTDLGLGYETKEELIFRYCSGSCDAAETTYDKILKNLSRNRRLVSDKVGQACCRPIAFDDDLSFLDDNLVYHILRKHSAKRCGCI

Assays:
[1] = target: GFRα1 soluble form (Homo sapiens) (UniProt P56159); assay: SPR; details: cited from earlier work
GFRα1 = target: T1, GFRα1; assay: MST

| Molecule | Kd [1] [nM] | Kd (GFRα1) [nM] |
| --- | --- | --- |
| GDNF (from UniProt P39905) | 0.63 |  |
| B1 |  | 260 |
